Measured values from the DeepSol protein solubility set.

Assay: soluble on expression in E. coli; label from the status in PepcDB or PDB records

Row | Sequence | soluble on expression in E. coli
1 | SMRPQPGDGERRYREASARKKIRLDRKYIVSCKQTEVPLSVPWDPSNQVYLSYNNVSSLKMLVAKDNWVLSSEISQVRLYTLEDDKFLSFHMEMVVHVDAAQAFLLLSDLRQRPEWDKHYRSVELVQQVDEDDAIYHVTSPALGGHTKPQDFVILASRRKPCDNGDPYVIALRSVTLPTHRETPEYRRGETLCSGFCLWREGDQLTKVSYYNQATPGVLNYVTTNVAGLSSEFYTTFKACEQFLLDNRNDLAPSLQTL | soluble
2 | PQQRRDIRFVWSGDTVGQGFGINPDIGGMRIYEAMRLRLPDFFIHSGDTIYADGPVPAQITAEGGRIWRNITTEAKSKVAETLDEYRGNYRYNLMDENLRRFNAEVPQIWQWDDHEVTNNWSPSKQLDDRYKVKDIQLLSSRARQAYLEYAPLRLQEADKGGRIYRKIPYGPMLDVFVLDMRSYRDGNDANLADKPGPTTAFMGCEQLDWLKRELDASTAQWKVIAADMPIGLGVPDGEVSPGVPRWEAIANGNDGPALGRELEIAELLAYLRAQKVRDCVWLTADVHYCAAHHYQPDLAVFQDFDPFWEFVAGPLNASSFGPNVLDKTFGPELVFQKAPPAQNTSPFAGYQFFGEVNIDGQTGEMSVALRDLDGVSVFERKLQP | not soluble
3 | MSLGELPPAPSDSKRTVFLDIDETLVHVTPYPLPFVKPDATFLLQEHRRPSDPPGVSPEYLPGVSAGAAPRAALLHVYYRPFLMPFLENLLQTNRCELVAFTAALREYADPILDGIETKLGGARGSVFAARLYRQHCARAPRSKDLVHAAPSRCLSRCVLLDNSVVSLAAQLANGLLLRPFYGDPQDRELEGVLAFLLDLLEKTGDIRESMKESGMLHKVTEGHHHHHH | not soluble
4 | MISSLAVEFGALRLACTSKIVMATRNMPARGTKPLPRHLWDMSDLEEKTSGQYTHKPLRINRLGGRDPETGRKVNQHIGGGVKFDYFMIDFHRRGPADQGATYDERILEIRRDPNRTCHIALCAGINGKRWILATENMKAGDVISTSGHLSENPVIGVEGNAYPIGSLAAGTVINSIERYPTMDSETFVKAAGTSATIVRHQGDFTVVKLPHKHEFSLHRTCMATVGRLSHADIDGKIFGSAQMHRRFGYKMSSGLFHKKDGYFGRKVRALPPVRILDTPPQAPPPNQRFTLSKKDLSGLHGHAKVHNLIPAGYSTRDYPE | not soluble
5 | GDYYDYLFKIVLIGDSGVGKSNLLSRFTRDEFNLESKSTIGVEFATKSIQLKNNKIIKAQIWDTAGQERYRAITSAYYRGAVGALLVYDITKKNSFENIEKWLKELRDNADSNIVILLVGNKSDLKHLRVINDNDATQYAKKEKLAFIETSALEATNVELAFHQLLNEIYNVRQKKQATKN | soluble
6 | GPGSMSHSALAYAACPMCTRVVHMGQMLHHILSTHKEQDPAYWMRLCNARLALYERVTGAPLEGTETMRDACLAQATAAVAEAADSEAMVPGGLSLSTPLSTHDALRPFLPTVSETGTYTCNWCALRSVAFSSRDAFLLHVAKDHPKLDFDVVESLVPQPLTVSSRAARNEGTGTPAPRAPAAESDVTVSDSWTRQQRGGAGCVGAASNSHAAEGFDVAYPVRRMPGVRTVQDTNVVTVKPEVHQLGTSVGRVGRNAFDPAPISTGGRRSRAAVSASSTASATAVANDLHFDKDCFPCELCFRVFVSELNLLQHLESKHTNPTTLASVSDASVERAAPPGTASASSTAAASPSSVEVFVVCDRCTDRKKVFRSSSALFSHIRFRHPAEDAAYETERMIEEQRQSRVFQCPHCRYRHPDMTRLDTHMRDAHGVVGCAGEKTIRGGRVVSGTAQPHGSAELKTAQPSLFSALPPVTVRTRFWCSVCEKGFANASALYAHTESKHTTIASLYPCPACKREFRDVPSLESHVQLCHKNLSLKDMGLQSSVECPDCLRHFLNYESLHDHAVRHHGKSAIAPVRSFVTPVSASTAGEGVGVAAAVPVPGTSTDASGSTTSPLAVAAPPKPRKVTRRKKEPSTAATES | not soluble
7 | MIKVKEDKNEQVKKRWGDKPYYSLNYFLREKFQDKVFKISLDAGFSCPNRDGTISRGGCMFCSERGSGDFAGNRKFSISTQFEDIKDMMKNKWKNGKYIAYFQAYTNTYAPIKVLREKYSEAISKDGVVGLAIATRPDCLSEEVLDLIQEFSKRIYVWVELGLQTANDKVAKVINRGYDTIVFDDAVKKLRERKIDVVVHTIFGLPGEKPKDMLSTIDYVAHKEVQGIKIHLLHLMRGTPLVELYNNGQLTFMSEEEYVETVCRAITMLPQNIV | not soluble
8 | MGSDKIHHHHHHRDMEIGDSGNVEIEMGEAAFVLKTSLSSLETKSLSDAGTLPASMDEAEINNCTLIFFEGTQVSSIMEGLFVNKENYIVKTKDGTKDDWAKVILKVKKPSPYSVMVIANSSKSFAGCQSENNIKDIIQDDKDALVKVGKMDISFDTDFAGYPTIAEALGKPLEIGAIPLSQLTARIELAEFNVSGFQGASVKEKVTVTGVDLLNLNPESYTINEQTHKNATYLSESKTCNVEVYNGVSDLPSTYSFVDNKNLLSFYSFRNLAKAESDQVKMQVRFKIGNSNEERTTRPFVINKEGNILHGVKSGYVYRLVVNMTIIGDKVETELLCYTRDWLNNTISIPMEDN | not soluble
9 | MNTKKFAKVNEQIPGPKAASLLERRQNIVPKGVSNGIPTFVQSANGALVTDVDGNQYIDFAGAIGTINVGHCHPAVKEALHKQVDQYIHTGFNVMMYEPYIELAEKLAALAPGSFDKQVLFLNSGAEAVENAVKIARKYTKRPGIIAFSKGFHGRTLMTMTMTSKVKPYKFGFGPFAPEVYKAPFPYEYRCPEGLTEEQYDDFMIEEFKNFFISEVAPETIAAVVMEPVQGEGGFIVPSKKFAQEVRNICSEHGILFVADEIQTGFSRTGKYFAIDHYDVVPDLITVSKSLGAGVPISGVIGRKEIMNESAPGELGGTYAGSPLGCAAALAVLDVIEKENLNDRAIELGKVVMNRFEEMKNKYNCIGDVRGLGAMCAFELVQDRKTKTPDKTLTANLCTEANKRGLLLLSAGTYGNVIRVLMPLVITDEQLEEGLTIIEESLQICYEKANTARV | not soluble
10 | MLIAVPLDDTNFSENLKKAKEKGADIVELRVDQFSDTSLNYVKEKLEEVHSQGLKTILTIRSPEEGGREVKNREELFEELSPLSDYTDIELSSRGLLVKLYNITKEAGKKLIISYHNFELTPPNWIIREVLREGYRYGGIPKIAVKANSYEDVARLLCISRQVEGEKILISMGDYGKISRLAGYVFGSVITYCSLEKAFAPGQIPLEEMVELRKKFYRL | soluble
11 | MSLKKLTVAALAVTTLLSGSAFAHEAGEFFMRAGSATVRPTEGAGGTLGSLGGFSVTNNTQLGLTFTYMATDNIGVELLAATPFRHKIGTRATGDIATVHHLPPTLMAQWYFGDASSKFRPYVGAGINYTTFFDNGFNDHGKEAGLSDLSLKDSWGAAGQVGVDYLINRDWLVNMSVWYMDIDTTANYKLGGAQQHDSVRLDPWVFMFSAGYRFEGGSHHHHHH | soluble
12 | MKKTLALAATAAVLMLSACSSGFGGEKEEEITQKTAKSSEKAIVPKYNISDSYYKMVLPFKAGKARGLTTEQLNTRLDIDEFETGLMRLAQDSFSTDDYLFQEGQYLDEDTVLSWLARKKTGSDLKKAEKEDKNFKNEGLNPALPSSGSTEEKNESSPIYLASMLEHDYLVRKDKNSIQLGGVMIGLALNSVYYYREKTGDPQKEVEIKDSTLRQQGEKIAQEVINRLRKKDNLKNVPITVALYKQASKTSIVPGNFIAKTEVKAGSTDISNWDDINEKYVFYPADTTTAEKYPDDTEVFKRFKNSIEEYFPNYTGVVGTALYENDEMKKMKIDIPMQFYGKSEVVAFTQFLTGEVMDYYSKSSVDVEVNITSSDGQEAVIIRNAGDKEPTVHIYD | not soluble
13 | MVEDILAPGLRVVFCGINPGLSSAGTGFPFAHPANRFWKVIYQAGFTDRQLKPQEAQHLLDYRCGVTKLVDRPTVQANEVSKQELHAGGRKLIEKIEDYQPQALAILGKQAYEQGFSQRGAQWGKQTLTIGSTQIWVLPNPSGLSRVSLEKLVEAYRELDQALVVRGR | soluble
14 | MGHHHHHHSHMHGSPVEVKIQSRSSPPTMPPLPPINPGGPRPVSFTPTALSNGINHSPPTLNGAPSPPQRFSNGPASSTSSALTNQQLPATCGARQLSKLKRFLTTLQQFGNDISPEIGEKVRTLVLALVNSTVTIEEFHCKLQEATNFPLRPFVIPFLKANLPLLQRELLHCARAAKQTPSQYLAQHEHLLLNTSIASPADSSELLMEVHGNGKRPSPESCIIHLKSMGVASRHEYFSGTLQMPAHPVRNSTLENLWVDCSRSLRSTVLPFP | not soluble
15 | NPMSVLLGKAEQLNLLYDKYWDDSMRLNPLQATLQGDAYHGDRMPNFLSAEFRKQHHDFIEKWLKKVEMVGADGLDGQAFISYQIFVRDARNSLHAERYPNWMLPINQFYNIANVAVVLGSGNGAQPFNTVQDYDNWAHRSLGIPALFNQAIVNMRLGMKSGVVQPKVLMEKVIPQLDSIIKPTAEETLFWVPIRNMSVTFSKENRQRITAEYKSIIEYRLLPAYRALRNFIATEYLPVCRDSVGLSALPGGASWYAYTVRQSTTTNMTPEQIHQLGLKEVERLQAEIQSVMRQLNFNGSMQKFFSFMQNNEYFTFGSEKEMLAYYRDLRTRVEARVPALFSLVPKAGFEILPVESFRAPSAAAGSYMPPSSNRRHNGVFYANTNDLSSRRTWNAEKLFLHQGIPGYHFQLGLQQELRNLPKFRRLGGETAFIEGWGLYAESLGKELGLYQDAYNYFGYLQDALSRAIRLVVDTGLHTKGWTRAQVVDYIVENSATSPIEAEAEVDRYIAIPGQALAYKVGELKIHQLRQYAQLTLGPMFDLREFHAEILKDGSVPLDILQQKIERWIAVK | not soluble
16 | MSLKTKQEIVENWLPRYTQRQLIDFEPYILLTNFSHYLHVFAEHYGVPIVGEHTSMPNASAEGVTLINFGMGSANAATIMDLLWAIHPKAVIFLGKCGGLKLENALGDYLLPIAAIRGEGTSNDYLPEEVPSLPSFSVLRAISSAIQNKGKDYWTGTVYTTNRRVWEYDEKFKDYLRSTHASGVDMETATLMTVGFANKIPMGALLLISDRPMFPEGVKTEESDQLVTDNFAEEHLMLGIDALEIIRENKSSIKHIRFNWEGHHHHHH | soluble
17 | GLNFPTYDGKDRVVSLSEKNFKQVLKKYDLLCLYYHEPVSSDKVTQKQFQLKEIVLELVAQVLEHKAIGFVMVDAKKEAKLAKKLGFDEEGSLYILKGDRTIEFDGEFAADVLVEFLLDLIEDPVEIISSKLEVQAFERIEDYIKLIGFFKSEDSEYYKAFEEAAEHFQPYIKFFATFDKGVAKKLSLKMNEVDFYEPFMDEPIAIPNKPYTEEELVEFVKEHQRPTLRRLRPEEMFETWEDDLNGIHIVAFAEKSDPDGYEFLEILKQVARDNTDNPDLSILWIDPDDFPLLVAYWEKTFKIDLFRPQIGVVNVTDADSVWMEIPDDDDLPTAEELEDWIEDVLSGKINTEDDDEDDDDDDNSDEEDNDDSDDDDDE | soluble
18 | MKYQVLLYYKYTTIEDPEAFAKEHLAFCKSLNLKGRILVATEGINGTLSGTVEETEKYMEAMQADERFKDTFFKIDPAEEMAFRKMFVRPRSELVALNLEEDVDPLETTGKYLEPAEFKEALLDEDTVVIDARNDYEYDLGHFRGAVRPDIRSFRELPQWIRENKEKFMDKKIVTYCTGGIRCEKFSGWLLKEGFEDVAQLHGGIANYGKNPETRGELWDGKMYVFDDRISVEINHVDKKVIGKDWFDGTPCERYINCANPECNRQILTSEENEHKHLGGCSLECSQHPANRYVKKHNLTEAEVAERLALLEAVEV | not soluble
19 | GSRNPNKLDINTLTGEERVPVVNKRNGKKMGGAMAPPMKDLPRWLEENPEFAVAPDWTDIVKQSGFVPESMFDRLLTGPVVRGEGAS | soluble
